Experimental data from the supplement of paper PMC9112550, “Optimization of the antimicrobial peptide Bac7 by deep mutational scanning” (BMC Biology, 2022).

System: Escherichia coli TOP10
Assay: shrunken log2 fold change of peptide-encoding DNA abundance (4.5 h post-induction vs induction); higher = less antimicrobial activity (less host growth inhibition)
Conditions: time post-induction: 4.5 h; library: site-saturation at positions 5, 18, 19, 20
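Note: peptides expressed intracellularly from a pBAD plasmid library in pooled LB shake-flask culture, induced with 0.3% L-arabinose, DNA abundance read by NGS, three biological replicates, DESeq2 with apeglm shrinkage.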

RRIRWRPPRLPRPRPRPETMPRP
shrunken log2 fold change: 0.569

RRIRDRPPRLPRPRPRPFKCPRP
shrunken log2 fold change: 0.0039

RRIRKRPPRLPRPRPRPPRRPRP
shrunken log2 fold change: 1.04

RRIRERPPRLPRPRPRPTAKPRP
shrunken log2 fold change: 0.0302

RRIRIRPPRLPRPRPRPVINPRP
shrunken log2 fold change: -0.198

RRIRNRPPRLPRPRPRPSALPRP
shrunken log2 fold change: -0.213

RRIRIRPPRLPRPRPRPNRQPRP
shrunken log2 fold change: -0.56

RRIRGRPPRLPRPRPRPHKRPRP
shrunken log2 fold change: 0.34

RRIRVRPPRLPRPRPRPVFQPRP
shrunken log2 fold change: -0.092

RRIRFRPPRLPRPRPRPAKFPRP
shrunken log2 fold change: -0.265

RRIRDRPPRLPRPRPRPHVAPRP
shrunken log2 fold change: -0.0272

RRIRIRPPRLPRPRPRPATCPRP
shrunken log2 fold change: -0.349

RRIRPRPPRLPRPRPRPQTKPRP
shrunken log2 fold change: -0.0309

RRIRSRPPRLPRPRPRPYINPRP
shrunken log2 fold change: -0.879

RRIRDRPPRLPRPRPRPQQQPRP
shrunken log2 fold change: -0.114

RRIRVRPPRLPRPRPRPYKYPRP
shrunken log2 fold change: -0.835

RRIRGRPPRLPRPRPRPWGAPRP
shrunken log2 fold change: 0.444

RRIRQRPPRLPRPRPRPAYEPRP
shrunken log2 fold change: -0.00926

RRIRHRPPRLPRPRPRPNPCPRP
shrunken log2 fold change: -0.132

RRIRSRPPRLPRPRPRPTEQPRP
shrunken log2 fold change: -0.0196

RRIRSRPPRLPRPRPRPKHPPRP
shrunken log2 fold change: -0.194

RRIRARPPRLPRPRPRPTFRPRP
shrunken log2 fold change: 0.323

RRIRGRPPRLPRPRPRPIKGPRP
shrunken log2 fold change: -0.0627

RRIRMRPPRLPRPRPRPMNWPRP
shrunken log2 fold change: -0.117

RRIRGRPPRLPRPRPRPVRFPRP
shrunken log2 fold change: 0.685

RRIRGRPPRLPRPRPRPSVRPRP
shrunken log2 fold change: 0.529

RRIRYRPPRLPRPRPRPITNPRP
shrunken log2 fold change: -0.544

RRIRERPPRLPRPRPRPFYTPRP
shrunken log2 fold change: -0.629

RRIRLRPPRLPRPRPRPHKEPRP
shrunken log2 fold change: 0.0165

RRIRNRPPRLPRPRPRPDYEPRP
shrunken log2 fold change: -0.00884

RRIRSRPPRLPRPRPRPCLNPRP
shrunken log2 fold change: -0.0696

RRIRPRPPRLPRPRPRPCAVPRP
shrunken log2 fold change: -0.418

RRIRVRPPRLPRPRPRPYHAPRP
shrunken log2 fold change: -0.00207

RRIRVRPPRLPRPRPRPTRVPRP
shrunken log2 fold change: 0.0936

RRIRIRPPRLPRPRPRPPWIPRP
shrunken log2 fold change: -0.173

RRIRDRPPRLPRPRPRPTICPRP
shrunken log2 fold change: -0.232

RRIRRRPPRLPRPRPRPMSCPRP
shrunken log2 fold change: 0.0813

RRIRDRPPRLPRPRPRPVLRPRP
shrunken log2 fold change: -0.0147

RRIRKRPPRLPRPRPRPAATPRP
shrunken log2 fold change: 0.838

RRIRSRPPRLPRPRPRPWSMPRP
shrunken log2 fold change: -0.176

RRIRDRPPRLPRPRPRPQYRPRP
shrunken log2 fold change: -0.0135

RRIRTRPPRLPRPRPRPEHVPRP
shrunken log2 fold change: 0.0823

RRIRTRPPRLPRPRPRPFTHPRP
shrunken log2 fold change: -0.174

RRIRRRPPRLPRPRPRPQRYPRP
shrunken log2 fold change: -0.15

RRIRHRPPRLPRPRPRPHQFPRP
shrunken log2 fold change: 0.0262

RRIRYRPPRLPRPRPRPYVQPRP
shrunken log2 fold change: -1.25

RRIRQRPPRLPRPRPRPYGFPRP
shrunken log2 fold change: 0.0147

RRIRFRPPRLPRPRPRPMFMPRP
shrunken log2 fold change: -0.14

RRIRWRPPRLPRPRPRPHACPRP
shrunken log2 fold change: 0.171

RRIRERPPRLPRPRPRPTVDPRP
shrunken log2 fold change: -0.0352

RRIRGRPPRLPRPRPRPFRFPRP
shrunken log2 fold change: 0.485

RRIRRRPPRLPRPRPRPLIAPRP
shrunken log2 fold change: 0.294

RRIRERPPRLPRPRPRPPTLPRP
shrunken log2 fold change: 0.162

RRIRYRPPRLPRPRPRPQLFPRP
shrunken log2 fold change: -0.745

RRIRWRPPRLPRPRPRPTNFPRP
shrunken log2 fold change: 0.0339

RRIRFRPPRLPRPRPRPFAWPRP
shrunken log2 fold change: -0.0558

RRIRLRPPRLPRPRPRPDMFPRP
shrunken log2 fold change: -0.218

RRIRMRPPRLPRPRPRPCSDPRP
shrunken log2 fold change: 0.0242

RRIRIRPPRLPRPRPRPWNKPRP
shrunken log2 fold change: -0.0719

RRIRMRPPRLPRPRPRPNIMPRP
shrunken log2 fold change: -0.466

RRIRNRPPRLPRPRPRPENDPRP
shrunken log2 fold change: 0.0164

RRIRQRPPRLPRPRPRPTIRPRP
shrunken log2 fold change: -0.219

RRIRSRPPRLPRPRPRPMVDPRP
shrunken log2 fold change: 0.197

RRIRDRPPRLPRPRPRPDDQPRP
shrunken log2 fold change: 0.259

RRIRERPPRLPRPRPRPSGEPRP
shrunken log2 fold change: -0.157

RRIRARPPRLPRPRPRPFMWPRP
shrunken log2 fold change: 0.065

RRIRFRPPRLPRPRPRPLRAPRP
shrunken log2 fold change: 0.821

RRIRLRPPRLPRPRPRPSPGPRP
shrunken log2 fold change: 0.0266

RRIRSRPPRLPRPRPRPYHMPRP
shrunken log2 fold change: -1.26

RRIRPRPPRLPRPRPRPCLFPRP
shrunken log2 fold change: -0.357

RRIRMRPPRLPRPRPRPEKIPRP
shrunken log2 fold change: 0.856

RRIRFRPPRLPRPRPRPSIIPRP
shrunken log2 fold change: -0.279

RRIRHRPPRLPRPRPRPRHYPRP
shrunken log2 fold change: -0.285

RRIRKRPPRLPRPRPRPKEDPRP
shrunken log2 fold change: 0.795

RRIRKRPPRLPRPRPRPGQSPRP
shrunken log2 fold change: 0.306

RRIRYRPPRLPRPRPRPILKPRP
shrunken log2 fold change: -1.06

RRIRYRPPRLPRPRPRPHQEPRP
shrunken log2 fold change: -0.0108

RRIRVRPPRLPRPRPRPRTEPRP
shrunken log2 fold change: 0.165

RRIRMRPPRLPRPRPRPNKRPRP
shrunken log2 fold change: 0.261

RRIRGRPPRLPRPRPRPLMVPRP
shrunken log2 fold change: 0.885

RRIRQRPPRLPRPRPRPKKDPRP
shrunken log2 fold change: -0.184

RRIRARPPRLPRPRPRPEATPRP
shrunken log2 fold change: 1.65

RRIRTRPPRLPRPRPRPMEYPRP
shrunken log2 fold change: -0.0122

RRIRDRPPRLPRPRPRPLAQPRP
shrunken log2 fold change: 0.83

RRIRSRPPRLPRPRPRPKEEPRP
shrunken log2 fold change: 0.0302

RRIRTRPPRLPRPRPRPSEIPRP
shrunken log2 fold change: -0.242

RRIRFRPPRLPRPRPRPGHAPRP
shrunken log2 fold change: 0.192

RRIRKRPPRLPRPRPRPFHPPRP
shrunken log2 fold change: -0.158

RRIRRRPPRLPRPRPRPWAWPRP
shrunken log2 fold change: 0.0216

RRIRCRPPRLPRPRPRPTMNPRP
shrunken log2 fold change: -0.421

RRIRDRPPRLPRPRPRPFAYPRP
shrunken log2 fold change: -0.101
